# Test results taken from the nanobody polyreactivity screen of Harvey et al. (2022).
# Experiment: yeast display, Sf9 membrane polyspecificity reagent, FACS + sequencing; frameworks hold sequencing errors
# Procedure, shortened: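 Polyreactivity labels are assigned by the sorting gate from which each nanobody was recovered. The gates were low and high (top ~1%), set on anti-HA fluorescence for expression and streptavidin fluorescence for reagent binding. Before sorting, galactose-induced (36–48 hours) yeast display cells were stained for 1 hour at 4 °C with 10% biotinylated, detergent-solubilized Sf9 membrane reagent.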
row,Sequence,polyreactivity (PSR sort gate)
1,QVQLVESGGGLVQAGGSLRLSCAASGLTFWKYTMGWYRQAPGKERELVAAISISGTNTYYADSVKGRFTISRDNAKNTVYLQMNSLKPEDTAVYYCAAVRGYPPTNYYYWGQGTQVSVSS,high polyreactivity
2,EVQLVESGGGLVQAGGSLRLSCAASGSTFRYNAMGWSRQAPGKEWEFVATISWTTGSTYYADSVKGRFTISRDNAKNTVYLQMNCLNAEDTAVYYCAAVASLFSDFRDYDYWGQGTQVTVSS,low polyreactivity
3,QVQRVESGGVLVQAGGSLRLSCAASGGIFYYYTMGWYRQAPGKERELVAAINWSGGSTYYADSVKGRFTISRDNAKNTVYLQMNSLKPEDTAVYYCNAVYRHPVTYGYWGQGTQVTVSS,high polyreactivity
4,QVQHVESGGGLVQAGGSLRLSCAASGSTFYFYTMGWYRQAPGKERELVAAITYSGGSTYADSVKGRFTISRDNAKNTDYLQMNSLKPEDTAVYYCAAASYFYLYLLEDYWGQGTQVTVSS,low polyreactivity
5,QVQLVESGGGLVQAGGSLRLSCAASGRTFVANTMGWYRQAPGKEREFVAGISRRGGSTYYADSVKGRYTISRDNAKNTVYLQMNSLKPEDPAVYYCAVGTWARYRGLEYDYWGQGTQVTVSS,high polyreactivity
6,QVQLVESGGGLVKAGGSLRLSCAASGSIFNRYAMGWYRPAPGKEREFGARISKRGGGTYYADSVKGRFTISRDNAKNPVYLQMNRLKPEDTAVYYCNAGVPSAMDYCGQGTQVTVSS,high polyreactivity
7,QVQLVESGGGLVQAGGSLRLSCAASGITFVRYTMGWYRQAPGKERQFVAGITRGGSTCYADSVKGRFTISRDNAKNTVYLQMNSLKPEDTAVYYCAARPRFLRASVEYDYWGQGTQVTVSS,high polyreactivity
8,QVQLVESGGGLVQAGGSLRLSCAASGFIFRRYAMGWYRQAPGKERELVASISWSGGSTYYADSVKGRFTISRDNAKNTVYLQMNSLKPEDTAVYYCAKGGYYSRYYSYGYWGQGTQVTVSS,high polyreactivity
9,QVQLVESGGGLVQAGGSLRLSCAASGSIFGWYAMGWYRQAPGKERELVAAISSSDGSTYYADSVKGRFTISRDNAKNTVYLQMNSLKPEDTAVYYCATDSAFTYAQYDYWGQGTQVTVSS,low polyreactivity
10,QVQHVESGGGLLQAGGSLRLSCAASGRTFGRYAMGWYRPAPGKERELVADIDYGGGSTYYADSVKGRFTISRDNAKNTFYLQMNSLKPEDTAVYYCNAGRDIGWGYHMDYWGQGTQVTVSS,high polyreactivity
11,QVQLVESGGGLVQAGGSLRLSCAASGRIYGIYAMGWYRQAPGKERDLVARITGGGSTNYADSVKGRFTISRDNAKYTVYLQMNSLKPEDTAVYYCAATVRRIVGNITRYDYWGQGTQVTVSS,low polyreactivity
12,QVQLVESGGGLVQAGGSLRLSCASSGFTSRYVMGWYRQAPGKEMELVASISRSGGSTYYADSVKGRFTISRDNAKNTVYLQMNSLKPEDTAVYYCAADATPTDMDYLGQGTQVTVSS,high polyreactivity
13,QVQLVESGGGLVQAGGSLRLSCAASGLIFSYYAMGWYRQAPGKERELVAGITRSGASTYADSVKGRFTISRDNAKNTVYLQMNSLKPEDTAVYYCAADWHYLGWFWQYSKYDYWGQGTQVTVSS,high polyreactivity
14,QVQLVESGGGLVQAGGSLRLSCAASGSIFQPNGMGWYRQAPGQEREFVARIDRSGGSTYYADSVKGRFTISRDNAKNTVYLQMNSLKPEDTAVYYCHAAGEVIGYDYWGQGTQVTVSS,low polyreactivity
15,QVQLEESGRGLVQAGGSLPLIFAASGSIIRGYAMGWYRPAPGKERELVAAINWSGSSTYYADSVKGRLTISRDNAKNTVNLQMNSLIPEDTAVYYCALVYYNRNLGGDYWGQGTKVTVSS,low polyreactivity
16,QVQLVKSGGGLVQAGGSLRLSCAASGRIFVGYVMGWYIQAPGKARELVAAIDSGRRTNYADSVKGRFTISRDNAKNTVYLQINSLKPEDTAVYYCNREAAHGSLRWTEMEYWGQGTQVTVSS,low polyreactivity
17,QVHLVESGGGLVQAGGSLRLSCDASGRIFKYNAMGWYRQAPGKERELVAAISSGGSTNYADSVKGRFTISRDNAKNTVYLQMNSLKPEDTAVYDCAADGTRVSSFHYLVWLCYWGQGTQVTVSS,low polyreactivity
18,QVQLVESGGGLVQAGGSLRLSCAASGYIFWINAMGWYRHAPGKERDLVAAIRYSTGRTYYADSVKGRFTISRDNAKNTVYLQMNSLKPEDTAVYYCNARSWYIRGSQEYYYWGQGTQVTVSS,high polyreactivity
19,QVQLVESVGGLVQAGGSLRLSCAASGSTFYANAMGWYRQAPGKERELVAAITWGDASTYYADSVKGRFTISRDNAKNTVYLQMNSLKPEDTAVYYCAVDESYGSSSDMDYWGQGTQVTVSS,low polyreactivity
20,QVQLVESGGGLVQAGGSLRLSCAASGHIFFYYTMGWYRQAPGKERELVAGITIGGSTNYADSVKGRFTISRDNAKNTVYLQMNSVKPEDTAVYYCKVVKYVDIYSYWEYYYWGQGTQVTVSS,low polyreactivity
21,QVQLEESGGCLVQAGGSLRLSCAASGFTIRDYTMGWSRQAPGKERELVAPISRSGGSTYYADSVKGRFTISRDNATNTVYLQMYSLKPEDTAVYYFAALWHAVFYADYDYWGQGTQVSVSS,high polyreactivity

row,Sequence,polyreactivity (PSR sort gate)
1,QVQLVESGGGLVQAGGSLRLSCAASGLIFIRYAMGWYRQAPGKERELVAAISWPGGNTYYADSVKGRFTISRDNAKNTVYLQMNSLKPEDTAVYYCAAVGTWQHRSYGYWGQGTQVTVSS,high polyreactivity
2,QVQLVESGGRLVQAGFSLRLSCAASGSTFRWYALGWYRQAPGIESELVAAITSGGRTYYADSVKGRFTISRDNAKNPVYLQMSSLKPEATAGYYCAAQYADRGKRDYWGQGTQVTGSS,high polyreactivity
3,QDQLVESGGGLVQAGGSLRLSCAASGSIFWLYAMGWYRQAHGKERELVASITGGGSTNYADSVKGRFTISRDNAKNTVYLQMNSLKPEDTAVYYCAKRYYRTGRKRTGLDYWGQGTQVTVSS,high polyreactivity
4,QVQLVESGGGLVQAGGSLRLSCAASGMTFTYYAMGWYRQAPGKERELVAAISWSDGSTYYADSVKGRFTISRDNAKNTVYLQMNSLKPEDTAVYYCAARYGGAISQAKYYYWGQGTQVTVSS,high polyreactivity
5,QVHLVESGGGLDQAGGSLRLSCAASGSISLIYAMGWYRQAPGKERELVAAITSSGGSTYYADSVKGRFTISRDNAKNTVYLQMNSLKREDTAVYYCAAERWTRRHYSGNDYWGQGTQVTVSS,low polyreactivity
6,QVQLVESGGGLVQVGGSLRLSCAASGRTFYDYAMGWYRQAPGKERELVAAITWSGGSTYYADSVKGRFTISRDNAKNTVYLQMNSLKPEDTAVSYCAKGGSYQSRYDYWGQGTQVTVSS,low polyreactivity
7,QVQLVESGGGLVQAGGSLRLSCAASGRTFSTYTMGWYRPAPGNERELVAAINWSGTSTYYADSVKGRFTISRDTAKNTVYLQMNSLKPEDTAFYYCNAGKWAYRWGYELNYWGQGTQVTVSS,high polyreactivity
8,QVQLVESGGGLVQAGGSLRLSCAASGRTFHYYAMGWYRQAPGKERELVAAISSTGGSTYYADSVKGRFTISRDNAKHPVYVQMNSLKPADTAVYSCAARQFGYYHVRNEYWGQGTQVTVSS,high polyreactivity
9,QVQLVESCGGLVQAGGSLRLSCAATGLTISRNVMGWYRQAPGKEREWVAAISRSGSTYYADSVKGRFTISRDNAKNTVYLQMNSLKPEDTAVYYCAKERYYTGRYSGHDYCGQGTQVTVSS,high polyreactivity
10,QVQVVESGGGLVQAGGSLRLSCAASGSTFVIYAMGWYRQAPGKEMELVAGITYSGGRTYYADSVKGRFTISRDNAKNTVYLHMNSLKPEDTAVYYCNARSTWPSGRYAHYRRYYYWGQGTQVTVSS,high polyreactivity
11,QVQLVESGGGLVQAGGSLRLSCAASGFTFYLYTMGWYRQAPGKERELVATITSDGGTNYADSVKGRFTISRDNAKNTVYLQMNSLKPEDTAVYYCNAASRRGSRKQAKYDFWGQGTQVTVSS,low polyreactivity
12,QVQLVESGGGLVQAGGSLRLSCAASGITFFDNAMGWYRQAPGKERELVATITGGGASTYYADSVKGRFTISRDNAKNTVYLLMNSLKPEDTAVYYCAADYVDGVYLEYGYWGQGTQVTVSS,low polyreactivity
13,QVQLVESGGGLVQAGGSLRLSCAASGFIFVKYAMGWYRQAPGKERELVAAISSTGGRTYYADSVKGRFTISRDNAKNTVYLQMNSLKPEVTAVYYCATEYGYPYGYWGQCTQVTVSS,high polyreactivity
14,QVQLVESGGGLVQAGGSLRLSCAASGSISGYYVMGWYRQAQGKERELVAAITWRGGSTYYADSVKGRFTISRDNAKNTVYLQMNSLKPEDTAVYYCNKVPGRGSTFEYWGQGTQVTVSS,high polyreactivity
15,QVQLVESGGGLVQAGGSLRLSCAASGFIFGIYAMGWYRQAPGNEWEFVAAITGSAGSTYYADSVKGRFTISRDNAKNTVYLQMNSLKPEDTAVYYCATDVLPRKYDSDYPSGAYDYWGQGTQVTVSS,low polyreactivity
16,QVQLVESGGGLVQAGGSLRLSCAPSGRIFSWNAMGWYRQAPGKERELVAAISVRGGSTYADSVKGRFTISRDNAKNTVYLQMNSLKPEDTAVYYCAKTYYPYRLGEGQYEYDYWGQGTQVTVSS,low polyreactivity
17,QVQLVESGGGLVQAGGSLRLSCAASGRIYWNDMGWYRQAPGKERELVAAISWGGDRTYYADSVKGRFTISRDNAKNSFYLQMNSLKPEDTAVYYFNAPGYLTYDHSYDYWGQGTQVTVSS,low polyreactivity
18,QVQLGESGGGLVQAGGTLRLTCAASGSIFNGNAMGGSRQAPGKERELVAAISRNGGSTYYAVSVKGRFTISRDNAKNTVYLQMNSQKPEDTAVYYCDTDLTVYYSYYWMYWGQGTQVTVSS,low polyreactivity
19,QVQLVESGGGLVQAGGILRLSCAASGRTLYHYVMGWYRQAPGKERELVAAISSGGSTYYADSVKGRFTISRDNAKNTVYLQMNSLKPEDTEVYYCAAGRRGDWGQGTQVTVSS,high polyreactivity
20,QVHLVESVGGLVQAGGSLRLICAASGRIFRRYAMGWYIQAPGKEREFVAAISYGGGSTYYADSVKGRFTISRDNAKNTVYLQMNSLKPEDSAVYYCNADVPKSLLLYYPWGYGYWGQGTQVTVSS,low polyreactivity
